Data on 1 molecule can be found in patent US20060058504A1, “Peptides capable of inducing attraction to the axonal growth and their use for treating neurodegenerative diseases” (Centre National de la Recherche Scientific (CNRS), priority 2002, published 2006).

Data set [1] deals with the molecule itself. Nature of the data set: two-color FACS bead aggregation, mutant to mutant (FIG. 2B).
Protocol: Excess unbound protein was removed by washing with PBS/5% FCS. […] Samples were diluted 1:5000 into ice cold PBS and the proportion of 2 colour aggregates was assessed using a fluorescence activated cell sorter (Becton Dickenson FACSort). […] Every mutant protein was assayed at least 3 separate times and standardised to a wild-type control conducted in parallel.
Data set [2] deals with T1, full-length wild-type human L1 expressed in COS7 cells (human, UniProt P32004 20-1257).
T1 construct: whole, on cells; also called wild-type L1; transmembrane L1
Nature of the data set: immunofluorescence of L1Fc on COS cells expressing wild-type L1.
Protocol: Briefly, COS-7 cells were transiently transfected with 10 μg DNA per 150 mm culture dish, the soluble Fc chimeric protein was allowed to accumulate in the media for 6 days and was recovered and purified by protein A-Sepharose affinity chromatography. In the binding experiments, L1Fcs were cross-linked to anti-human Fc antibodies (50 μg/ml, Jackson Immunoresearch) for 1 hr at 37° C. […] Following incubation, the cells were fixed with 4% PFA, and processed for double-immunofluorescence detection. NP-1 was detected using a mouse anti-c myc antibody (clone 9E10, Sigma) and L1 using a rat monoclonal anti-L1 antibody. […] After secondary antibody incubation, the cells were washed with PBS and mounted in Mowiol (Calbiochem).

B1: G121S mutant L1Fc chimera (Fc fusion, UniProt P32004 20-1120, looked up)
chain: IQIPEEYEGHHVMEPPVITEQSPRRLVVFPTDDISLKCEASGKPEVQFRWTRDGVHFKPKEELGVTVYQSPHSGSFTITGNNSNFAQRFQGIYRCFASNKLSTAMSHEIRLMAEGAPKWPKETVKPVEVEEGESVVLPCNPPPSAEPLRIYWMNSKILHIKQDERVTMGQNGNLYFANVLTSDNHSDYICHAHFPGTRTIIQKEPIDLRVKATNSMIDRKPRLLFPTNSSSHLVALQGQPLVLECIAEGFPTPTIKWLRPSGPMPADRVTYQNHNKTLQLLKVGEEDDGEYRCLAENSLGSARHAYYVTVEAAPYWLHKPQSHLYGPGETARLDCQVQGRPQPEVTWRINGIPVEELAKDQKYRIQRGALILSNVQPSDTMVTQCEARNRHGLLLANAYIYVVQLPAKILTADNQTYMAVQGSTAYLLCKAFGAPVPSVQWLDEDGTTVLQDERFFPYANGTLGIRDLQANDTGRYFCLAANDQNNVTIMANLKVKDATQITQGPRSTIEKKGSRVTFTCQASFDPSLQPSITWRGDGRDLQELGDSDKYFIEDGRLVIHSLDYSDQGNYSCVASTELDVVESRAQLLVVGSPGPVPRLVLSDLHLLTQSQVRVSWSPAEDHNAPIEKYDIEFEDKEMAPEKWYSLGKVPGNQTSTTLKLSPYVHYTFRVTAINKYGPGEPSPVSETVVTPEAAPEKNPVDVKGEGNETTNMVITWKPLRWMDWNAPQVQYRVQWRPQGTRGPWQEQIVSDPFLVVSNTSTFVPYEIKVQAVNSQGKGPEPQVTIGYSGEDYPQAIPELEGIEILNSSAVLVKWRPVDLAQVKGHLRGYNVTYWREGSQRKHSKRHIHKDHVVVPANTTSVILSGLRPYSSYHLEVQAFNGRGSGPASEFTFSTPEGVPGHPEALHLECQSNTSLLLRWQPPLSHNGVLTGYVLSYHPLDEGGKGQLSFNLRDPELRTHNLTDLSPHLRYRFQLQATTKEGPGEAIVREGGTMALSGISDFGNISATAGENYSVVSWVPKEGQCNFRFHILFKALGEEKGGASLSPQYVSYNQSSYTQWDLQPDTDYEIHLFKERMFRHQMAVKTNGTGRVRLPPAGFATE
notes: also called G121S-L1Fc; not shown: immunoglobulin Fc, human
B1: the binding result is “binds” in data set [1] and “no binding” in data set [2].
